Laboratory results published in patent publication CN111018973A.

Columns and labels:
cTnI质控品重组抗原 (human) [1] = molecular target: cTnI质控品重组抗原 (human) (UniProt P19429); assay: indirect ELISA, cTnI coated at 1 ug/ml, antibody 0.32 ng/ml, goat anti-mouse IgG-HRP
cTnI质控品重组抗原 (human) [2] = molecular target: cTnI质控品重组抗原 (human) (UniProt P19429); assay: indirect ELISA, cTnI coated at 1 ug/ml, antibody 1000 ng/ml, goat anti-mouse IgG-HRP
cTnI质控品重组抗原 (human) [3] = molecular target: cTnI质控品重组抗原 (human) (UniProt P19429); assay: indirect ELISA, cTnI coated at 1 ug/ml, antibody 0 ng/ml (blank, background), goat anti-mouse IgG-HRP
cTnI质控品重组抗原 (human) [4] = molecular target: cTnI质控品重组抗原 (human) (UniProt P19429); assay: indirect ELISA, cTnI coated at 1 ug/ml, antibody 200 ng/ml, goat anti-mouse IgG-HRP
cTnI质控品重组抗原 (human) [5] = molecular target: cTnI质控品重组抗原 (human) (UniProt P19429); assay: indirect ELISA, cTnI coated at 1 ug/ml, antibody 40 ng/ml, goat anti-mouse IgG-HRP
cTnI质控品重组抗原 (human) [6] = molecular target: cTnI质控品重组抗原 (human) (UniProt P19429); assay: indirect ELISA, cTnI coated at 1 ug/ml, antibody 1.6 ng/ml, goat anti-mouse IgG-HRP
cTnI质控品重组抗原 (human) [7] = molecular target: cTnI质控品重组抗原 (human) (UniProt P19429); assay: indirect ELISA, cTnI coated at 1 ug/ml, antibody 8 ng/ml, goat anti-mouse IgG-HRP

Sequence of UniProt P19429 (P19429 whole entry): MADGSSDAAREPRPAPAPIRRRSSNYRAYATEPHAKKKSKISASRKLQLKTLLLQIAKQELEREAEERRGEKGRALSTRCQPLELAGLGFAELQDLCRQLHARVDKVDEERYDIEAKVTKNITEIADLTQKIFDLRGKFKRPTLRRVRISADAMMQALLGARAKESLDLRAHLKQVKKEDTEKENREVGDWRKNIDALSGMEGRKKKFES

OD值 (450 nm, 参考630 nm) (cTnI质控品重组抗原 (human) [1]): 0.086 OD
OD值 (450 nm, 参考630 nm) (cTnI质控品重组抗原 (human) [2]): 2.03 OD
OD值 (450 nm, 参考630 nm) (cTnI质控品重组抗原 (human) [3]): 0.062 OD
OD值 (450 nm, 参考630 nm) (cTnI质控品重组抗原 (human) [4]): 1.91 OD
OD值 (450 nm, 参考630 nm) (cTnI质控品重组抗原 (human) [5]): 1.85 OD
OD值 (450 nm, 参考630 nm) (cTnI质控品重组抗原 (human) [6]): 0.227 OD
OD值 (450 nm, 参考630 nm) (cTnI质控品重组抗原 (human) [7]): 1.47 OD
B1: Anti-cTnI 8B6 重组抗体 (WT) (antibody, V domains shown)
VH: EVQLQQSGAELVKPGASVKLSCTASGFNIRDYYMHWMKQRTEQGLDWIGRIDPEEGETKYPPEFQGKATITADTSSNTAYLQLSTLTSEDTAVYYCARYYTSYIPFVYWGQGTLVTASA
VL: DVVMTQTPLSLSVSLGDQASISCRSTQSLLYSQRHTFLHWYLQKPGQSPKLLIFKISNKFSGVPDRFSGSGSGTDFTLKISRVEAEDLGVYFCSNSTHLPYTFGSGTKLEIKR
